What was measured:
[1] = biological target: T1, HmtSSB (human mitochondrial SSB) (Homo sapiens, UniProt Q04837 17-148); assay: fluorescence anisotropy
T1 sequence: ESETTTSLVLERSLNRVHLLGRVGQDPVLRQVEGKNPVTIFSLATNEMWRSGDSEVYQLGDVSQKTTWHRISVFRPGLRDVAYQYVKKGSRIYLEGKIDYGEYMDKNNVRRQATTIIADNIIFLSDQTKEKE

[2] = biological target: T1, HmtSSB (human mitochondrial SSB); assay: fluorescence anisotropy; remark: listed apart in the source
AUC = biological target: the molecule itself; assay: AUC

| Binder | Kd [1] [nM] | apparent K (half saturation) [2] [nM] | stoichiometry N (AUC) |
| --- | --- | --- | --- |
| GTTTTCCCAGTCACGAC (ssDNA) [17-mer] | 19.2 ± 3.1 | 19.4 ± 4 | – |
| human mitochondrial single-stranded DNA-binding protein (HmtSSB) (natural protein, UniProt Q04837 17-148, looked up) ESETTTSLVLERSLNRVHLLGRVGQDPVLRQVEGKNPVTIFSLATNEMWRSGDSEVYQLGDVSQKTTWHRISVFRPGLRDVAYQYVKKGSRIYLEGKIDYGEYMDKNNVRRQATTIIADNIIFLSDQTKEKE | – | – | 4 |

Reference: article PMC2632919 (Nucleic Acids Research, 2008)
